The test has as its target mLRPIV-HA, stably expressed in SH-SY5Y. The experiment in a line: co-IP + ELISA; SH-SY5Y cells stably expressing mLRPIV-HA incubated with Aβ42 and 1 to 200 nM DKK1 or DKK3; mLRPIV-HA precipitated with anti-HA affinity gel; Aβ42 in the eluate by ELISA.

B1: DKK1-Flag (ligand)
chain: TLNSVLNSNAIKNLPPPLGGAAGHPGSAVSAAPGILYPGGNKYQTIDNYQPYPCAEDEECGTDEYCASPTRGGDAGVQICLACRKRRKRCMRHAMCCPGNYCKNGICVSSDQNHFRGEIEETITESFGNDHSTLDGYSRRTTLSSKMYHTKGQEGSVCLRSSDCASGLCCARHFWSKICKPVLKEGQVCTKHRRKGSHGLEIFQRCYCGEGLSCRIQKDHHQASNSSRLHTCQRH
As to B1, the percent reduction of Aβ42 binding to mLRPIV at 20 nM DKK1 amounted to 44%.

Source of the values: article PMC12594171, “DKK3-LRP1 complex and a chemical inhibitor regulate Aβ clearance in models of Alzheimer’s disease” (Science Advances, 2025).
